Data taken from patent US20050064507A1, “Determining kinase specificity” (priority 2003, published 2005).

How the values were obtained:
[1] = target: LIMK-2 peptide … (SEQ ID NO:121) after phosphorylation by PKC-theta (human); experiment: pPKC Ab binding to biotinylated peptide on avidin-coated plate; signal after minus signal without PKC-theta
[2] = target: MLK3 peptide … (SEQ ID NO:76) after phosphorylation by PKC-theta (human); experiment: as above
[3] = target: LIMK-2 peptide … (SEQ ID NO:121) (human); experiment: pPKC Ab binding to biotinylated peptide on avidin-coated plate
[4] = target: LIMK-2 peptide … (SEQ ID NO:121) after phosphorylation by PKC-theta (human); experiment: as above
[5] = target: MLK3 peptide … (SEQ ID NO:76) (human); experiment: as above
[6] = target: MLK3 peptide … (SEQ ID NO:76) after phosphorylation by PKC-theta (human); experiment: as above
[7] = target: SHP-1 phosphopeptide AHAKASRT-pS-SKHKEDVY (SEQ ID NO:291) (human); experiment: ELISA on phosphopeptides synthesized in microtiter wells; settings: scale: normalized
[8] = target: SHP-1 phosphopeptide RVILQGRD-pS-NIPGSDYI (SEQ ID NO:290) (human); experiment: as above; settings: scale: normalized
[9] = target: SHP-1 phosphopeptide PLNCSDPT-pS-ERWYHGHM (SEQ ID NO:297) (human); experiment: as above; settings: scale: normalized
[10] = target: SHP-1 phosphopeptide PWTFLVRE-pS-LSQPGDFV (SEQ ID NO:295) (human); experiment: as above; settings: scale: normalized
[11] = target: SHP-1 phosphopeptide KNQGDFSL-pS-VRVGDQVT (SEQ ID NO:296) (human); experiment: as above; settings: scale: normalized
[12] = target: SHP-1 phosphopeptide HGSFLARP-pS-RKNQGDFS (SEQ ID NO:300) (human); experiment: as above; settings: scale: normalized
[13] = target: SHP-1 phosphopeptide HAKASRTS-pS-KHKEDVYE (SEQ ID NO:294) (human); experiment: as above; settings: scale: normalized
[14] = target: SHP-1 phosphopeptide LKGRGVHG-pS-FLARPSRK (SEQ ID NO:299) (human); experiment: as above; settings: scale: normalized
[15] = target: SHP-1 phosphopeptide PSEPGGVL-pS-FLDQINQR (SEQ ID NO:293) (human); experiment: as above; settings: scale: normalized
[16] = target: SHP-1 phosphopeptide KKKLEVLQ-pS-QKGQESEY (SEQ ID NO:292) (human); experiment: as above; settings: scale: normalized
[17] = target: SHP-1 phosphopeptide MKNAHAKA-pS-RTSSKHKE (SEQ ID NO:289) (human); experiment: as above; settings: scale: normalized
[18] = target: SHP-1 phosphopeptide ADKEKSKG-pS-LKRK (SEQ ID NO:298) (human); experiment: as above; settings: scale: normalized

- pPKC Ab Signal amount dependent on PKC phosphorylation [1]: 1.11
- pPKC Ab Signal amount dependent on PKC phosphorylation [2]: 0.95
- pPKC Ab Signal on peptide without exposure to PKC-theta [3]: 0.02
- pPKC Ab Signal on peptide after exposure to PKC-theta phosphorylation [4]: 1.13
- pPKC Ab Signal on peptide without exposure to PKC-theta [5]: 0.07
- pPKC Ab Signal on peptide after exposure to PKC-theta phosphorylation [6]: 1.02
- Binding of pPKC antibody [7]: 12
- Binding of pPKC antibody [8]: 13
- Binding of pPKC antibody [9]: 0
- Binding of pPKC antibody [10]: 5
- Binding of pPKC antibody [11]: 3
- Binding of pPKC antibody [12]: 39
- Binding of pPKC antibody [13]: 7
- Binding of pPKC antibody [14]: 54
- Binding of pPKC antibody [15]: 9
- Binding of pPKC antibody [16]: 11
- Binding of pPKC antibody [17]: 18
- Binding of pPKC antibody [18]: 100
Substance: phospho-PKC motif antibody (Phospho-(Ser) PKC Substrate Antibody, Cell Signaling Technology)
